Numbering of substitutions follows the chain as printed.

The labels stand for the following.
B1: BJRbL20 (antibody, V domains shown)
VH: QSVEESGGRLVTPGGSLTLTCTVSGIDLSSYDMGWVRQAPGKGLEWIGNIWSNGFTDYASWVNGRFTISKSSSTKMDLKMTSLTTEDTATYFCARGSSGYVGDIWGPGTLVTVSS
VL: DPVLTQTASSVSAAVGGTVTINCQASQSVYGNNELSWFQQKPGQPPKLLIYYASTLASGVPSRFKGSGSGTQFTLTISDLECDDAAIYYCQGGYLGNRAFGGGTEVVVKG
notes: also called 兔抗LAM单克隆抗体BJRbL20; LAM抗体
B2: BJRbL52 (antibody, V domains shown)
VH: B1 VH with G15T, I26F, D27S
VL: B1 VL with F38Y, P42S, Y52K, G66A, L95W
notes: also called 兔抗LAM单克隆抗体BJRbL52; LAM抗体
B3: BJRbL76 (antibody, V domains shown)
VH: QSVEESGGRLVTPGTPLTLTCTVSGFSLSTYAITWVRQAPGKGLEWIGYIWGGGNTDYASWAKGRFTISKTSTTVDLKITSPTIEDTATYFCGRNDLGYGSDIWGPGTLVTVSS
VL: DVVMTQTPSSKSVPVGDTVTINCQASQSVWGNKWLSWYQQKPGQPPKLLIYQASKLASGVPSRFSGSGSGTQFTLTISDVVCDDAATYYCGGHGTGNNDNPLGGGTMVEIKG
notes: also called 兔抗LAM单克隆抗体BJRbL76; LAM抗体

One test addresses T1, 结核分枝杆菌特异性重组蛋白EspC (Mycobacterium tuberculosis, UniProt P9WJD7 1-103).
T1 sequence (looked up): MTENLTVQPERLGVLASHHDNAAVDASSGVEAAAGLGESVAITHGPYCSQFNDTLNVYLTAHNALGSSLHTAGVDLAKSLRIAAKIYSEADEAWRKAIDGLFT
Nature of the test: indirect ELISA, recombinant protein coated on the plate.
For B1, the binding result is recorded as “no binding (tested: protein coated at 5μg/ml)”.

For B2, the binding result was “no binding (tested: protein coated at 5μg/ml)”.

As to B3, the binding result was “no binding (tested: protein coated at 5μg/ml)”.

Another test has as its target T2, 结核分枝杆菌特异性重组蛋白CFP10 (Mycobacterium tuberculosis, UniProt P9WNK5 1-100).
T2 sequence (looked up): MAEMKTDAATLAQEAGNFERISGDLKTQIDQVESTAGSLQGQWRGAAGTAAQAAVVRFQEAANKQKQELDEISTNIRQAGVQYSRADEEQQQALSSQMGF
The description is as above.
Take B1: the binding result is on record as “no binding (tested: protein coated at 5μg/ml)”.

As for B2, the binding result is reported as “no binding (tested: protein coated at 5μg/ml)”.

For B3, the binding result is “no binding (tested: protein coated at 5μg/ml)”.

For a further test, the target named is T3, 结核分枝杆菌特异性重组蛋白38KD (Mycobacterium tuberculosis, UniProt P9WGU1 24-374).
T3 sequence (looked up): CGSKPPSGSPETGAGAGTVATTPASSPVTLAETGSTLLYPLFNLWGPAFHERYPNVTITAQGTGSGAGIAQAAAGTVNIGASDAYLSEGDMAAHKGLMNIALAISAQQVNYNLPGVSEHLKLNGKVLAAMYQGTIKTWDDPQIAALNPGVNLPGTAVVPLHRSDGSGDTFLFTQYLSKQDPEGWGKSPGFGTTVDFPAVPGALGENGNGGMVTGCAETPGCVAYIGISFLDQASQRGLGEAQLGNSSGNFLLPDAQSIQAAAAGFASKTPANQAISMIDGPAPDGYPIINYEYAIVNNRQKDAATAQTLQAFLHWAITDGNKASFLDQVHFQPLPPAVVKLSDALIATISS
The description is as above.
In the case of B1, the binding result is “no binding (tested: protein coated at 5μg/ml)”.

Take B2: the binding result is “no binding (tested: protein coated at 5μg/ml)”.

Regarding B3, the binding result is recorded as “no binding (tested: protein coated at 5μg/ml)”.

A further test deals with 结核分枝杆菌特异性重组蛋白Mtb81 (Mycobacterium tuberculosis, UniProt P9WK17 1-741). The description is as above.
Sequence of 结核分枝杆菌特异性重组蛋白Mtb81 (P9WK17 whole entry): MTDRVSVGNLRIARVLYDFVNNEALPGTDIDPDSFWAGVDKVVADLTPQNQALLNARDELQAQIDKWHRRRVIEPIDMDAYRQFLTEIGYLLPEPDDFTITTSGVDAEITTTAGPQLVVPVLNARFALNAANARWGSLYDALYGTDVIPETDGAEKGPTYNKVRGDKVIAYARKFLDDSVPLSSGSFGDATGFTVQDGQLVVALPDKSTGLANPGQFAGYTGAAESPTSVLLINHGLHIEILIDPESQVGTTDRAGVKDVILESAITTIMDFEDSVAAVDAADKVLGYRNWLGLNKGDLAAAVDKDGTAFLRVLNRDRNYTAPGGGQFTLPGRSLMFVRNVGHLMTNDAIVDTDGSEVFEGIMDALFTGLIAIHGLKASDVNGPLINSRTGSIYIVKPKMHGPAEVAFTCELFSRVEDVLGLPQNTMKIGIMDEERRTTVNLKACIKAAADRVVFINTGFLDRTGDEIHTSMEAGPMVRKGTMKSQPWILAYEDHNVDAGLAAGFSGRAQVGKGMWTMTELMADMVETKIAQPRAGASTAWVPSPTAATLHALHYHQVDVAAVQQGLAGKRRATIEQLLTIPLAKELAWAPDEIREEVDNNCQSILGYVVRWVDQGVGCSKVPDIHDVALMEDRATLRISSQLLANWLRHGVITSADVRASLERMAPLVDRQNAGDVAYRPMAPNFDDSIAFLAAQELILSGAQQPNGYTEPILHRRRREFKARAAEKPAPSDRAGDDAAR
On to B1, for which the binding result is listed as “no binding (tested: protein coated at 5μg/ml)”.

Take B2: the binding result was “no binding (tested: protein coated at 5μg/ml)”.

Turning to B3, the binding result is recorded as “no binding (tested: protein coated at 5μg/ml)”.

In a further test the target is T4, 结核分枝杆菌特异性重组蛋白MPT32 (Mycobacterium tuberculosis, UniProt P9WIR7 40-325).
T4 sequence (looked up): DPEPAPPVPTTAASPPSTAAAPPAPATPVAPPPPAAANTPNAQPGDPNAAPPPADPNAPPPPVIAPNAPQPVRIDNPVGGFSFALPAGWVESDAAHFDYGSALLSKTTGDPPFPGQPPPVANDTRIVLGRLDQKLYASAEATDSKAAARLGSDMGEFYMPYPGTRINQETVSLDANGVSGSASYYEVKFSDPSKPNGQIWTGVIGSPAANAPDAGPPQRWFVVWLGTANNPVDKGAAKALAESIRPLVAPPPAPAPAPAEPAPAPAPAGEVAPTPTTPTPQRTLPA
Described as above.
For the molecule B1, the binding result is listed as “no binding (tested: protein coated at 5μg/ml)”.

On to B2, for which the binding result was “no binding (tested: protein coated at 5μg/ml)”.

As for B3, the binding result was “no binding (tested: protein coated at 5μg/ml)”.

The next test concerns the target T5, 结核分枝杆菌特异性重组蛋白MPT64 (Mycobacterium tuberculosis, UniProt P9WIN9 24-228).
T5 sequence (looked up): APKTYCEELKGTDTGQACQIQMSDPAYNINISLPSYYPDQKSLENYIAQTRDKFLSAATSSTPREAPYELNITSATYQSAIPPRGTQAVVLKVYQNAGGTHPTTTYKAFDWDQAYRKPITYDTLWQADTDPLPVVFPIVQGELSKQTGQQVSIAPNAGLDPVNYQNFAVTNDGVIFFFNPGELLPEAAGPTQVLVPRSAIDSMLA
Described as above.
Take B1: the binding result is “no binding (tested: protein coated at 5μg/ml)”.

As for B2, the binding result is on record as “no binding (tested: protein coated at 5μg/ml)”.

Take B3: the binding result is reported as “no binding (tested: protein coated at 5μg/ml)”.

These data come from patent CN111234026A (BEIJING CHEST HOSPITAL CAPITAL MEDICAL UNIV; BEIJING …, dated 2020).
